Source: PMC8929358
Where a chain is given by its changes, count along the chain named. In names and notes the source's numbering stands.

B1: UGT 1A8 (Homo sapiens) (protein)
chain: GKLLVVPMDGSHWFTMQSVVEKLILRGHEVVVVMPEVSWQLGKSLNCTVKTYSTSYTLEDLDREFMDFADAQWKAQVRSLFSLFLSSSNGFFNLFFSHCRSLFNDRKLVEYLKESSFDAVFLDPFDACGLIVAKYFSLPSVVFARGIACHYLEEGAQCPAPLSYVPRILLGFSDAMTFKERVRNHIMHLEEHLFCQYFSKNALEIASEILQTPVTAYDLYSHTSIWLLRTDFVLDYPKPVMPNMIFIGGINCHQGKPLPMEFEAYINASGEHGIVVFSLGSMVSEIPEKKAMAIADALGKIPQTVLWRYTGTRPSNLANNTILVKWLPQNDLLGHPMTRAFITHAGSHGVYESICNGVPMVMMPLFGDQMDNAKRMETKGAGVTLNVLEMTSEDLENALKAVINDKSYKENIMRLSSLHKDRPVEPLDLAVFWVEFVMRHKGAPHLRPAAHDLTWYQYHSLDVIGFLLAVVLTVAFITFKCCAYGYRKCLGKKGRVKKAHKSKTH
B2: SULT1A1*1 (Homo sapiens) (protein)
chain: MELIQDTSRPPLEYVKGVPLIKYFAEALGPLQSFQARPDDLLISTYPKSGTTWVSQILDMIYQGGDLEKCHRAPIFMRVPFLEFKAPGIPSGMETLKDTPAPRLLKTHLPLALLPQTLLDQKVKVVYVARNAKDVAVSYYHFYHMAKVHPEPGTWDSFLEKFMVGEVSYGSWYQHVQEWWELSRTHPVLYLFYEDMKENPKREIQKILEFVGRSLPEETVDFVVQHTSFKEMKKNPMTNYTTVPQEFMDHSISPFMRKGMAGDWKTTFTVAQNERFDADYAEKMAGCSLSFRSEL
B3: SULT1A1*2 (Homo sapiens; R213H) (protein)
chain: B2 chain with R213H
B4: UGT 1A9 (Homo sapiens) (protein)
chain: GKLLVVPMDGSHWFTMRSVVEKLILRGHEVVVVMPEVSWQLGRSLNCTVKTYSTSYTLEDLDREFKAFAHAQWKAQVRSIYSLLMGSYNDIFDLFFSNCRSLFKDKKLVEYLKESSFDAVFLDPFDNCGLIVAKYFSLPSVVFARGILCHYLEEGAQCPAPLSYVPRILLGFSDAMTFKERVRNHIMHLEEHLLCHRFFKNALEIASEILQTPVTEYDLYSHTSIWLLRTDFVLDYPKPVMPNMIFIGGINCHQGKPLPMEFEAYINASGEHGIVVFSLGSMVSEIPEKKAMAIADALGKIPQTVLWRYTGTRPSNLANNTILVKWLPQNDLLGHPMTRAFITHAGSHGVYESICNGVPMVMMPLFGDQMDNAKRMETKGAGVTLNVLEMTSEDLENALKAVINDKSYKENIMRLSSLHKDRPVEPLDLAVFWVEFVMRHKGAPHLRPAAHDLTWYQYHSLDVIGFLLAVVLTVAFITFKCCAYGYRKCLGKKGRVKKAHKSKTH
B5: UGT 1A1 (Homo sapiens) (protein)
chain: HAGKILLIPVDGSHWLSMLGAIQQLQQRGHEIVVLAPDASLYIRDGAFYTLKTYPVPFQREDVKESFVSLGHNVFENDSFLQRVIKTYKKIKKDSAMLLSGCSHLLHNKELMASLAESSFDVMLTDPFLPCSPIVAQYLSLPTVFFLHALPCSLEFEATQCPNPFSYVPRPLSSHSDHMTFLQRVKNMLIAFSQNFLCDVVYSPYATLASEFLQREVTVQDLLSSASVWLFRSDFVKDYPRPIMPNMVFVGGINCLHQNPLSQEFEAYINASGEHGIVVFSLGSMVSEIPEKKAMAIADALGKIPQTVLWRYTGTRPSNLANNTILVKWLPQNDLLGHPMTRAFITHAGSHGVYESICNGVPMVMMPLFGDQMDNAKRMETKGAGVTLNVLEMTSEDLENALKAVINDKSYKENIMRLSSLHKDRPVEPLDLAVFWVEFVMRHKGAPHLRPAAHDLTWYQYHSLDVIGFLLAVVLTVAFITFKCCAYGYRKCLGKKGRVKKAHKSKTH
B6: UGT 1A10 (Homo sapiens) (protein)
chain: GKLLVVPMDGSHWFTMQSVVEKLILRGHEVVVVMPEVSWQLERSLNCTVKTYSTSYTLEDQNREFMVFAHAQWKAQAQSIFSLLMSSSSGFLDLFFSHCRSLFNDRKLVEYLKESSFDAVFLDPFDTCGLIVAKYFSLPSVVFTRGIFCHHLEEGAQCPAPLSYVPNDLLGFSDAMTFKERVWNHIVHLEDHLFCQYLFRNALEIASEILQTPVTAYDLYSHTSIWLLRTDFVLDYPKPVMPNMIFIGGINCHQGKPLPMEFEAYINASGEHGIVVFSLGSMVSEIPEKKAMAIADALGKIPQTVLWRYTGTRPSNLANNTILVKWLPQNDLLGHPMTRAFITHAGSHGVYESICNGVPMVMMPLFGDQMDNAKRMETKGAGVTLNVLEMTSEDLENALKAVINDKSYKENIMRLSSLHKDRPVEPLDLAVFWVEFVMRHKGAPHLRPAAHDLTWYQYHSLDVIGFLLAVVLTVAFITFKCCAYGYRKCLGKKGRVKKAHKSKTH
B7: UGT 2B7 (Homo sapiens) (protein)
chain: GKVLVWAAEYSHWMNIKTILDELIQRGHEVTVLASSASILFDPNNSSALKIEIYPTSLTKTELENFIMQQIKRWSDLPKDTFWLYFSQVQEIMSIFGDITRKFCKDVVSNKKFMKKVQESRFDVIFADAIFPCSELLAELFNIPFVYSLSFSPGYTFEKHSGGFIFPPSYVPVVMSELTDQMTFMERVKNMIYVLYFDFWFEIFDMKKWDQFYSEVLGRPTTLSETMGKADVWLIRNSWNFQFPYPLLPNVDFVGGLHCKPAKPLPKEMEDFVQSSGENGVVVFSLGSMVSNMTEERANVIASALAQIPQKVLWRFDGNKPDTLGLNTRLYKWIPQNDLLGHPKTRAFITHGGANGIYEAIYHGIPMVGIPLFADQPDNIAHMKARGAAVRVDFNTMSSTDLLNALKRVINDPSYKENVMKLSRIQHDQPVKPLDRAVFWIEFVMRHKGAKHLRVAAHDLTWFQYHSLDVIGFLLVCVATVIFIVTKCCLFCFWKFARKAKKGKND
B8: UGT 1A3 (Homo sapiens) (protein)
chain: GKVLVVPIDGSHWLSMREVLRELHARGHQAVVLTPEVNMHIKEENFFTLTTYAISWTQDEFDRHVLGHTQLYFETEHFLKKFFRSMAMLNNMSLVYHRSCVELLHNEALIRHLNATSFDVVLTDPVNLCAAVLAKYLSIPTVFFLRNIPCDLDFKGTQCPNPSSYIPRLLTTNSDHMTFMQRVKNMLYPLALSYICHAFSAPYASLASELFQREVSVVDILSHASVWLFRGDFVMDYPRPIMPNMVFIGGINCANRKPLSQEFEAYINASGEHGIVVFSLGSMVSEIPEKKAMAIADALGKIPQTVLWRYTGTRPSNLANNTILVKWLPQNDLLGHPMTRAFITHAGSHGVYESICNGVPMVMMPLFGDQMDNAKRMETKGAGVTLNVLEMTSEDLENALKAVINDKSYKENIMRLSSLHKDRPVEPLDLAVFWVEFVMRHKGAPHLRPAAHDLTWYQYHSLDVIGFLLAVVLTVAFITFKCCAYGYRKCLGKKGRVKKAHKSKTH

Tests used:
[1] = substrate: Cc1c(Cl)c(C)[n+]([O-])c(Cl)c1-c1noc(-c2cc(O)c(O)c([N+](=O)[O-])c2)n1; experiment: cells, lysate or membranes named; format: in vitro ADME, human; details: pH 7.5; 37.0 °C
not read = substrate: Cc1c(Cl)c(C)[n+]([O-])c(Cl)c1-c1noc(-c2cc(O)c(O)c([N+](=O)[O-])c2)n1; experiment: not read; format: in vitro ADME, human; details: other: substrate inhibition fit; pH 7.4; 37.0 °C

Protein | Km [1] [µM] | Km (not read) [µM]
B1 | 34.8 ± 9.6 | –
B2 | – | 18.7
B3 | – | 27.3
B4 | 13.7 | –
B5 | 18 | –
B6 | 64.9 ± 23.8 | –
B7 | 20.6 | –
B8 | 213 | –
